PINK1 association with the TOM complex left with pSu9-DHFR, % of control and integration of radiolabeled TOM40 into the MOM of mitochondria preincubated with pSu9-DHFR, % of untreated mitochondria data for one substance are collected here from publication PMC9110474.

Where only a bound is given, the exact number is not on record here.

Assay [1] has as its target TOM complex (translocase of the mitochondrial outer membrane), human, endogenous core complex (human (endogenous in HeLa or U2OS)) (UniProt O96008). Nature of the assay: native gel or EMSA; competition: mitochondria preincubated on ice for 10 min with 20 µg pSu9-DHFR-His, 1 mM methotrexate and 1 mM NADPH, depolarized, then import of radiolabeled PINK1; BN-PAGE, 700 kDa species quantified (clogger and TOM complex). (Mobility shift assays separate free from complexed probe on a gel.)

The target is the same in assay [2].

In assay [1], pSu9-DHFR-His registered a PINK1 association with the TOM complex left with pSu9-DHFR, % of control below 40%. For the same substance, in assay [2], the integration of radiolabeled TOM40 into the MOM of mitochondria preincubated with pSu9-DHFR, % of untreated mitochondria was 60%.
